{"source": "patent US20180221438A1", "about": "“MODULATING URACIL-DNA GLYCOSYLASE AND USES THEREOF” (Adaerata Limited Partnership, priority 2015, published 2018)", "molecules": {"B1": {"name": "Ugi: Uracil Glycosylase Inhibitor of Bacillus subtilis bacteriophage PBS1/PBS2, small protein (9.5 kDa), SEQ ID NO: 29; expressed in cells by retroviral delivery (protein)", "chain": "MTNLSDIIEKETGKQLVIQESILMLPEEVEEVIGNKPESDILVHTAYDESTDENVMLLTSDAPEYKPWALVIQDSNGENKIKML", "modifications": "bacillus subtilis", "notes": "expressed in cells by retroviral delivery"}}, "key": {"[1]": {"test_system": "CH12F3 cells", "experiment": "FISH of metaphase chromosomes for sister telomere loss (STL) in CH12F3 cells", "assay_type": "cell-based, mouse", "description": "B cell lymphoma cells, CH12F3-2 cells, were cultured in RPMI medium supplemented with 10% FBS, 0.05% 2- mercaptoethanol and 5% NCTC 109 (Sigma). CH12F3-2 cells stably expressing Ugi were obtained by retroviral delivery using pMIG vector as described before ^39. Class switching induction to IgA in CH12F3-2 cells was performed as previously published ^39. CSR to IgA in CH12F3-2 cells was determined with an Accuri C6™ Flow Cytometer (BD Biosciences). Mouse B cells were purified from freshly isolated splenocytes using anti-CD43 magnetic beads as described ^70. CSR was induced using 5 ? g/ml LPS (Sigma) and 20 ng/ml IL-4 (Preprotech). Cells were harvested for ChIP or metaphase spreads and FISH at 24 h post stimulation.\nFor metaphase analysis cells were incubated with 50 ng/ml colcemide in cell culture media for 3 hours, harvested by trypsinization, incubated for 10 min at RT in 75 mM KCl, and fixed in freshly prepared methanol:glacial acetic acid (3:1 v/v). Cells were stored at 4° C. and when needed dropped onto wet slides and air-dried. For FISH analysis of the metaphases the cells were pre-treated with 0.05% w/v pepsin in 10 mM HCl during 10 minutes at 37° C. […] Finally, the samples were analyzed as described above. […]"}, "[2]": {"test_system": "CH12F3 cells", "experiment": "ChIP for DNA damage marker at the telomeres", "assay_type": "cell-based, mouse", "details": "CH12F3 Ugi vs CH12F3 GFP", "description": "ChIPs to evaluate interaction with the telomeric chromatin or the Ig locus were performed as described previously ^39,61. Briefly, cells were cross-linked with 1% formaldehyde for 20 min at room temperature and reaction was stopped by addition of glycine to 125 mM final concentration. Cells were washed twice with cold PBS, harvested and kept at −80° C. O.N. Samples were resuspended in RIPA buffer (150 mM NaCl, 1% [v/v] Igepal CA-630, 0.5% [w/v] Sodium Deoxycholate, 0.1% [w/v] SDS, 50 mM Tris-HCl at pH 8, 5 mM EDTA, protease and phosphatase inhibitors) and sonicated to generate DNA fragments <500 bp using a Bioruptor™ Next Gen (Diagenode).\nIn order to increase the sensitivity of the ChIP assays and evaluate the presence of AID at the telomeres we performed the immunoprecipitations with fractions enriched in crosslinked chromatin. For this goal B cells fixed with 1% formaldehyde as described above were resuspended in RIPA buffer, sonicated during 90 seconds using a Bioruptor™ Next Gen (Diagenode), and the lysates were then spun down briefly (2000g, for 5 min at 4 C) to remove debris. […] Samples were then clarified by centrifugation at 20,000 RPM (4° C.) and their protein content was measured using the BCA method (Biorad). […]"}, "[3]": {"test_system": "DLBCL cells", "experiment": "Metaphases with STL in DLBCL lines", "assay_type": "cell-based, human", "details": "DLBCL lines expressing GFP or Ugi, and AID or shAID", "description": "For metaphase analysis cells were incubated with 50 ng/ml colcemide in cell culture media for 3 hours, harvested by trypsinization, incubated for 10 min at RT in 75 mM KCl, and fixed in freshly prepared methanol:glacial acetic acid (3:1 v/v). Cells were stored at 4° C. and when needed dropped onto wet slides and air-dried. For FISH analysis of the metaphases the cells were pre-treated with 0.05% w/v pepsin in 10 mM HCl during 10 minutes at 37° C. After washes with 1X PBS, cells were fixed with 1% formaldehyde in 1X PBS during 10 minutes at RT, washed again with 1X PBS and dehydrated with ethanol series (70-90-100%, 2 min each at RT) and air-dried ON. Then, cells were denatured with hybridization solution (70% deionized formamide; 2.5% 50× Denhardt solution; 10 mM Tris pH 7.5; 1.5 mM MgCl2) containing Alexa488-conjugated PNA probe (Alexa488-OO-(CCCTAA)3) 2 min at 80° C. on a heat block. After 4 hours incubation at RT in the dark, the samples were washed twice with wash solution (70% deionized formamide and 10 mM Tris-HCl [pH 7.2]) at RT and then twice with PBS. For DAPI staining of DNA, slides with metaphase spreads were incubated 10 min in 0.5 ? g/ml 4′, 6-diamino-2-phenylindole (DAPI) (Sigma) in PBS, washed with PBS for 2 min, and mounted in SlowFade™ Gold antifade mounting reagent (Life Technologies). Finally, the samples were analyzed as described above. […]"}}, "data": [{"molecule": "B1", "values": [{"measurement": "STL", "setting": "[1]; CH12F3 Ugi cells expressing human AID, without inducing class switching, vs CH12F3 GFP", "value": "significant increase in STL"}, {"measurement": "metaphase chromosomes with STL", "setting": "[1]; activated CH12F3 cells expressing Ugi vs CH12F3 cells expressing GFP alone", "value": "significant increase in metaphase chromosomes with STL"}, {"measurement": "phospho-ser129-H2AX at the telomeres", "setting": "[2]", "value": "AID-dependent accumulation of phospho-ser129-H2AX"}, {"measurement": "number of metaphases with STL", "setting": "[3]", "value": "significant increase in the number of metaphases with STL only when DLBCL cells expressed AID and Ugi but not with Ugi alone"}]}]}
